How the values were obtained:
[1] = target: HLA-B*07:02; assay: IEDB peptide-MHC binding, purified MHC/direct/fluorescence; filed as Kd, often an IC50 or EC50 that approximates it; ≥ and ≤ were set here for values at or beyond the usual limits of such assays
[2] = target: HLA-B*15:01; assay: as above
[3] = target: HLA-B*27:05; assay: as above
[4] = target: HLA-B*40:01; assay: as above
[5] = target: HLA-A*31:01; assay: as above; details: source organism: Brucella abortus
[6] = target: HLA-A*01:01; assay: as above
[7] = target: HLA-B*44:02; assay: as above
[8] = target: HLA-A*26:01; assay: as above
[9] = target: HLA-B*58:01; assay: as above
[10] = target: HLA-A*69:01; assay: as above
[11] = target: HLA-A*11:01; assay: as above
[12] = target: HLA-A*03:01; assay: as above
[13] = target: HLA-A*02:01; assay: as above
[14] = target: HLA-B*08:01; assay: as above
[15] = target: HLA-B*73:01; assay: as above
[16] = target: HLA-A*30:01; assay: as above; details: source organism: Vibrio parahaemolyticus
[17] = target: HLA-C*08:02; assay: as above
[18] = target: HLA-C*03:03; assay: as above; details: source organism: Burkholderia mallei SAVP1
[19] = target: HLA-A*02:12; assay: IEDB peptide-MHC binding, purified MHC/competitive/fluorescence; filed as Kd, often an IC50 or EC50 that approximates it; ≥ and ≤ were set here for values at or beyond the usual limits of such assays; details: source organism: Burkholderia mallei SAVP1
[20] = target: HLA-A*02:01; assay: as above
[21] = target: HLA-C*05:01; assay: IEDB peptide-MHC binding, purified MHC/direct/fluorescence; filed as Kd, often an IC50 or EC50 that approximates it; ≥ and ≤ were set here for values at or beyond the usual limits of such assays; details: source organism: human gammaherpesvirus 4
[22] = target: HLA-B*07:02; assay: IEDB peptide-MHC binding, purified MHC/competitive/radioactivity; filed as Kd, often an IC50 or EC50 that approximates it; ≥ and ≤ were set here for values at or beyond the usual limits of such assays; details: source organism: Vaccinia virus Copenhagen
[23] = target: HLA-B*54:01; assay: as above; details: source organism: Vaccinia virus Copenhagen
[24] = target: HLA-B*35:01; assay: as above; details: source organism: Vaccinia virus Copenhagen
[25] = target: HLA-A*33:01; assay: as above; details: source organism: Vaccinia virus Copenhagen
[26] = target: HLA-A*68:01; assay: as above; details: source organism: Vaccinia virus Copenhagen
[27] = target: HLA-A*31:01; assay: as above; details: source organism: Vaccinia virus Copenhagen
[28] = target: HLA-A*11:01; assay: as above; details: source organism: Vaccinia virus Copenhagen
[29] = target: HLA-A*03:01; assay: as above; details: source organism: Vaccinia virus Copenhagen
[30] = target: HLA-B*53:01; assay: as above; details: source organism: Vaccinia virus Copenhagen
[31] = target: HLA-B*51:01; assay: as above; details: source organism: Vaccinia virus Copenhagen
[32] = target: HLA-B*48:01; assay: IEDB peptide-MHC binding, purified MHC/direct/fluorescence; filed as Kd, often an IC50 or EC50 that approximates it; ≥ and ≤ were set here for values at or beyond the usual limits of such assays
[33] = target: HLA-A*02:03; assay: IEDB peptide-MHC binding, purified MHC/competitive/radioactivity; filed as Kd, often an IC50 or EC50 that approximates it; ≥ and ≤ were set here for values at or beyond the usual limits of such assays; details: source organism: Vaccinia virus WR
[34] = target: HLA-A*02:06; assay: as above; details: source organism: Vaccinia virus WR
[35] = target: HLA-A*02:02; assay: as above; details: source organism: Vaccinia virus WR
[36] = target: HLA-C*15:02; assay: IEDB peptide-MHC binding, purified MHC/direct/fluorescence; filed as Kd, often an IC50 or EC50 that approximates it; ≥ and ≤ were set here for values at or beyond the usual limits of such assays
[37] = target: HLA-B*27:05; assay: IEDB peptide-MHC binding, purified MHC/competitive/fluorescence; filed as Kd, often an IC50 or EC50 that approximates it; ≥ and ≤ were set here for values at or beyond the usual limits of such assays; details: source organism: Escherichia coli B171
[38] = target: HLA-B*39:01; assay: as above; details: source organism: Escherichia coli B171
[39] = target: HLA-A*26:02; assay: IEDB peptide-MHC binding, purified MHC/direct/fluorescence; filed as Kd, often an IC50 or EC50 that approximates it; ≥ and ≤ were set here for values at or beyond the usual limits of such assays; details: source organism: Bacillus anthracis str. A0465
[40] = target: HLA-B*46:01; assay: IEDB peptide-MHC binding, purified MHC/competitive/fluorescence; filed as Kd, often an IC50 or EC50 that approximates it; ≥ and ≤ were set here for values at or beyond the usual limits of such assays; details: source organism: Bacillus anthracis str. A2012
[41] = target: HLA-A*26:03; assay: IEDB peptide-MHC binding, purified MHC/direct/fluorescence; filed as Kd, often an IC50 or EC50 that approximates it; ≥ and ≤ were set here for values at or beyond the usual limits of such assays; details: source organism: Vibrio parahaemolyticus AQ3810
[42] = source organism: Brucella abortus
[43] = source organism: Vibrio parahaemolyticus
[44] = source organism: Burkholderia mallei SAVP1
[45] = source organism: Listeria monocytogenes
[46] = source organism: Vaccinia virus Copenhagen
[47] = source organism: Bacillus anthracis

**Q.** How did the Kd [1, 42] turn out when GRKTPLLCF was run?
**A.** ≥ 20 µM

**Q.** And the Kd [2, 42]?
**A.** ≥ 20 µM

**Q.** What about the Kd ([3]; source organism: Brucella melitensis) of the same sequence?
**A.** 939 nM

**Q.** What about the Kd [4, 42] of the same sequence?
**A.** ≥ 20 µM

**Q.** What about the Kd [5] of the same sequence?
**A.** ≥ 20 µM

**Q.** And the Kd [6, 42]?
**A.** ≥ 20 µM

**Q.** And the Kd [7, 42]?
**A.** ≥ 20 µM

**Q.** And the Kd [8, 42]?
**A.** ≥ 20 µM

**Q.** What about the Kd [9, 42] of the same sequence?
**A.** ≥ 20 µM

**Q.** What about the Kd [10, 42] of the same sequence?
**A.** ≥ 20 µM

**Q.** What about the Kd [11, 42] of the same sequence?
**A.** ≥ 20 µM

**Q.** And the Kd [12, 42]?
**A.** ≥ 20 µM

**Q.** And the Kd [13, 42]?
**A.** ≥ 20 µM

**Q.** And the Kd [14, 42]?
**A.** ≥ 20 µM

**Q.** What about the Kd ([15]; source organism: Brucella suis 1330) of the same sequence?
**A.** ≥ 20 µM

**Q.** How did the Kd [1, 43] turn out when IRSCWRYRK was run?
**A.** ≥ 20 µM

**Q.** And the Kd [2, 43]?
**A.** ≥ 20 µM

**Q.** What about the Kd [3, 43] of the same sequence?
**A.** 74.8 nM

**Q.** And the Kd [16]?
**A.** 516 nM

**Q.** And the Kd [4, 43]?
**A.** ≥ 20 µM

**Q.** What about the Kd [6, 43] of the same sequence?
**A.** ≥ 20 µM

**Q.** And the Kd [7, 43]?
**A.** ≥ 20 µM

**Q.** What about the Kd [8, 43] of the same sequence?
**A.** ≥ 20 µM

**Q.** And the Kd [9, 43]?
**A.** ≥ 20 µM

**Q.** What about the Kd [10, 43] of the same sequence?
**A.** ≥ 20 µM

**Q.** What about the Kd [11, 43] of the same sequence?
**A.** 2.14 µM

**Q.** What about the Kd [12, 43] of the same sequence?
**A.** 7.86 µM

**Q.** What about the Kd [13, 43] of the same sequence?
**A.** ≥ 20 µM

**Q.** What about the Kd [14, 43] of the same sequence?
**A.** ≥ 20 µM

**Q.** What about the Kd ([15]; source organism: Vibrio parahaemolyticus AQ3810) of the same sequence?
**A.** 3.88 µM

**Q.** How did the Kd [17, 44] turn out when YVTPRALEL was run?
**A.** 122 nM

**Q.** What about the Kd [18] of the same sequence?
**A.** ≤ 1 nM

**Q.** And the Kd [19]?
**A.** ≥ 10 µM

**Q.** And the Kd [20, 44]?
**A.** 1760 nM

**Q.** For ASDYSQGAF, which Kd ([17]; source organism: human gammaherpesvirus 4) is on record?
**A.** ≤ 1 nM

**Q.** What about the Kd [21] of the same sequence?
**A.** ≤ 1 nM

**Q.** For ILDDNLYKV, which Kd [22] is on record?
**A.** ≥ 77.5 µM

**Q.** What about the Kd [23] of the same sequence?
**A.** ≥ 78.1 µM

**Q.** What about the Kd [24] of the same sequence?
**A.** ≥ 77.4 µM

**Q.** What about the Kd [25] of the same sequence?
**A.** ≥ 77.7 µM

**Q.** What about the Kd [26] of the same sequence?
**A.** ≥ 77.7 µM

**Q.** And the Kd [27]?
**A.** ≥ 54 µM

**Q.** And the Kd [28]?
**A.** 2760 nM

**Q.** What about the Kd [29] of the same sequence?
**A.** 12.3 µM

**Q.** And the Kd [30]?
**A.** ≥ 78.2 µM

**Q.** And the Kd [31]?
**A.** ≥ 77.5 µM

**Q.** What about the Kd ([17]; source organism: Variola virus) of the same sequence?
**A.** 379 nM

**Q.** And the Kd ([20]; source organism: Variola virus)?
**A.** 0.7 nM

**Q.** Which results are given for YLDDPDLKY?
**A.** Kd ([17]; source organism: Xenopus laevis): ≥ 20000 nM; Kd ([2]; source organism: Homo sapiens): 0.437 µM; Kd ([6]; source organism: Homo sapiens): 0.0668 µM; Kd ([10]; source organism: Homo sapiens): 18 µM; Kd ([11]; source organism: Homo sapiens): ≥ 24.4 µM; Kd ([13]; source organism: Homo sapiens): 3.36 µM

**Q.** Which Kd [3, 45] does the source give for KRYKQMCTK here?
**A.** 177 nM

**Q.** And the Kd [32, 45]?
**A.** ≥ 20 µM

**Q.** And the Kd ([15]; source organism: Listeria monocytogenes serotype 4b str. H7858)?
**A.** ≥ 20 µM

**Q.** Which results are given for KLFTHDIML?
**A.** Kd [33]: 2.95 nM; Kd [34]: 4.74 nM; Kd [35]: 1.05 nM; Kd [36, 46]: ≥ 20000 nM; Kd [20, 46]: 0.5 nM

**Q.** What does the source list for QTNLYNLLY?
**A.** Kd [37]: ≥ 20 µM; Kd [38]: ≥ 20 µM; Kd ([20]; source organism: Escherichia coli B171): 4000 nM

**Q.** Which Kd ([36]; source organism: Pseudomonas aeruginosa PACS2) does the source give for TSYPTAVQF here?
**A.** 106 nM

**Q.** For RRMMMRITE, which Kd [3, 47] is on record?
**A.** 280 nM

**Q.** What about the Kd [32, 47] of the same sequence?
**A.** ≥ 20 µM

**Q.** And the Kd ([15]; source organism: Bacillus cereus B4264)?
**A.** 1.15 µM

**Q.** Which results are given for FFLFPMAAY?
**A.** Kd [39]: 2 nM; Kd ([8]; source organism: Bacillus anthracis str. A0465): 0.49 µM; Kd [40]: 98.2 nM

**Q.** QTWHGDAPY was tested. Which Kd [41] did it give?
**A.** 277 nM

From the Immune Epitope Database (IEDB)
